From the Human Domainome abundance scans (Beltran et al. 2025)

B1: WW domain-containing transcription regulator protein 1, residues 116 to 162; numbered along this chain, Q9GZV5 (parent)
chain: QSYDVTDELPLPPGWEMTFTATGQRYFLNHIEKITTWQDPRKAMNQP
B2: Protein S100-G, residues 1 to 79; numbered along this chain, P02633 (parent)
chain: MSAKKSPEELKGIFEKYAAKEGDPNQLSKEELKLLLQTEFPSLLKGPSTLDELFEELDKNGDGEVSFEEFQVLVKKISQ

Variants of: B1
Test: abundance fitness (aPCA) (normalised: wild type 0, dead -1); higher = more abundant; growth selection in yeast, the domain comes from the species named
Conditions: Homo sapiens

Abundance fitness, by site and new letter:
D7: S -0.104 | A -0.049 | Y -0.268 | T -0.065 | E -0.314 | V -0.207 | Q -0.178 | N -0.041 | K -0.041 | F -0.312 | C -0.202 | W -0.45 | H 0.053 | M -0.185 | G -0.154 | R -0.166 | I -0.195
E8: D -0.084 | S -0.071 | K -0.005 | R -0.109 | L -0.253 | N -0.128 | G -0.07 | P -0.09 | F -0.302 | M 0.065 | W -0.78 | C -0.163 | T 0.01 | Y -0.248 | I -0.274 | V -0.118 | A -0.027
T20: G -0.381 | H -0.451 | C -0.356 | E -0.387 | A -0.287
L11: T -0.548 | M -0.07 | V -0.381 | E -0.767 | R -0.847 | G -0.731 | Y -0.493 | W -0.686 | N -0.789 | K -0.746 | S -0.609 | Q -0.684 | I -0.337 | A -0.715 | C -0.432 | H -0.676 | D -0.732 | P -0.556 | F -0.08
P13: K -0.084 | H -0.014 | N -0.022 | G -0.136 | F -0.093 | L -0.124 | S -0.067 | D -0.012 | Q 0.026 | R -0.082 | A -0.043 | Y -0.112 | I -0.18 | C -0.222 | V -0.058 | T -0.072 | W -0.245 | M -0.168 | E -0.043
Y3: I 0.274 | Q -0.2 | V -0.472 | L -0.323 | P 0.087 | H 0.013 | C 0.262 | M 0.182
F19: H -0.385 | M -0.185 | A -0.06 | E -0.017 | P -0.597 | L -0.115 | C -0.274 | G -0.425 | S -0.106 | I 0.023 | K -0.047 | D -0.319 | T -0.108 | W -0.021 | Q -0.121 | R -0.089 | V -0.054 | Y -0.082
Q1: M 0.26 | R -0.365 | Y -0.132 | H -0.704 | D -0.005 | A -0.519 | T -0.492 | G -0.163 | I 0.001 | E -0.182 | V -0.45
P10: T -0.045 | Q -0.123 | R -0.224 | M -0.212 | L -0.25 | G -0.12 | I -0.174 | S -0.109 | K -0.115 | Y -0.351 | A -0.088 | W -0.393 | H -0.181 | N -0.129 | V -0.188 | F -0.342 | D -0.083 | C -0.374 | E -0.058
T18: E -0.064 | A 0.023 | N -0.159 | G 0.018 | R 0.094 | D -0.018 | M -0.056 | S 0.05 | P -0.85 | C -0.009 | V -0.035 | Y -0.086 | K 0.097 | Q 0.045 | L -0.047 | W -0.245
S2: M -0.017 | Y -0.226 | C -0.192 | G -0.034 | N 0.361 | V -0.148 | T -0.092 | H 0.149 | D 0.057 | P -0.45 | K -0.074 | I -0.026 | L -0.093 | E -0.274 | F -0.035 | Q -0.167 | A -0.255 | W -0.406
T6: V -0.06 | A -0.196 | S -0.03 | Y -0.189 | M -0.008 | E -0.216 | R -0.086 | F -0.074 | H -0.352 | L -0.104 | P -0.013 | Q -0.142 | C -0.071 | D -0.104 | I -0.032 | N -0.198
P12: V -0.921 | W -0.826 | K -0.782 | R -0.692 | F -0.997 | M -0.862 | C -0.716 | I -0.873 | G -0.49 | T -0.758 | E -0.601 | L -0.738 | A -0.467 | Q -0.494 | N -0.556 | Y -0.61 | D -0.604 | H -0.907
L9: T 0.117 | Y -0.035 | Q 0.022 | S -0.003 | N -0.009 | R 0.027 | E -0.028 | W -0.087 | M -0.009 | K -0.064 | P -0.001 | F -0.082 | A 0.044 | V 0.05 | C -0.103 | G -0.027 | I 0.022 | D 0.028 | H -0.043
V5: P -0.224 | G -0.194 | T 0.011 | Y -0.354 | N -0.033 | E -0.088 | C -0.126 | I 0.029 | S -0.053 | Q -0.145 | R -0.111 | L -0.103 | H -0.231 | A -0.088 | M -0.026 | K -0.023
W15: P -1.09 | L -0.89 | R -0.625 | A -0.913 | V -0.69 | C -0.627 | Q -0.5 | S -0.686 | E -0.689 | K -0.784 | N -0.616 | M -0.695 | D -0.532 | T -0.753 | I -0.802 | Y -0.351 | H -0.876 | F -0.311 | G -0.636
E16: Q -0.035 | F -0.326 | Y -0.78 | R -0.365 | I -0.266 | V -0.193 | S -0.081 | M -0.387 | N -0.58 | C -0.28 | T -0.215 | A -0.217 | P -0.864 | H -0.684 | D -0.039 | W -0.389 | G -0.22 | L -0.364
D4: K -0.014 | W -0.381 | H -0.207 | I -0.189 | F -0.152 | T -0.162 | Y 0.048 | E -0.072 | S -0.089 | P -0.071 | A -0.083 | L -0.147 | R -0.151 | Q -0.404 | G -0.198 | C 0.049 | N 0.053
M17: R -0.279 | T -0.094 | Q 0.037 | D -0.414 | S -0.102 | V -0.05 | C -0.035 | Y -0.264 | N -0.582 | P -0.345 | I -0.09 | F -0.172 | K -0.214 | W -0.369 | E 0.017 | L -0.067 | H -0.44 | G -0.366
G14: K -0.466 | N -0.071 | I -1 | R -0.583 | P -0.378 | A -0.365 | C -0.475 | V -0.748 | D -0.259 | E -0.21 | F -0.534 | Y -0.421 | W -0.491 | Q -0.467 | S -0.379 | L -0.823 | M -0.505

Variants of: B2
Test: as above
Conditions: Bos taurus

Abundance fitness of substitutions, site by site:
Q79: Y -0.148 | V -0.086 | T 0.085 | N -0.154 | R 0.16 | W -0.086 | M 0.026 | S 0.041 | P 0.254
